Source: patent publication US20180250396A1 (FONDAZIONE IRCCS ISTITUTO NAZIONALE DEI TUMORI, published 2018)

B1: Clone 8 anti-TRAIL-R2 ScFv isolated with Phage Display (scFv)
scFv: EVQLLESGGGLVQPGGSLRLSCAASGFTFSSYAMSWVRQAPGKGLEWVSAISQQGQVTDYADSVKGRFTISRDNSKNTLYLQMNSLRAEDTAVYYCAKRWNRFDYWGQGTLVIVSSGGGGSGGGGSGGGGSTDIQMTQSPSSLSASVGDRVTITCRASQSISSYLNWYQQKPGKAPKLLIYAASGLQSGVPSRFSGSGSGTDFTLTISSLQPEDFATYYCQQHSMSPNTFGQGTKVEIKRAA
notes: Tested on phage and as soluble scFv
B2: scDb 16e2/hUCTH1 (bispecific antibody)
chain: EVQLVQSGGGVERPGGSLRLSCAASGFTFDDYGMSWVRQAPGKGLEWVSGINWNGGSTGYADSVKGRVTISRDNAKNSLYLQMNSLRAEDTAVYYCAKILGAGRGWYFDLWGKGTTVTVSSTGGGGSDIQMTQSPSSLSASVGDRVTITCRASQDIRNYLNWYQQKPGKAPKLLIYYTSRLESGVPSRFSGSGSGTDYTLTISSLQPEDFATYYCQQGNTLPWTFGQGTKVEIKRGGGGSGGGGSGGGGSEVQLVESGGGLVQPGGSLRLSCAASGYSFTGYTMNWVRQAPGKGLEWVALINPYKGVSTYNQKFKDRFTISVDKSKNTAYLQMNSLRAEDTAVYYCARSGYYGDSDWYFDVWGQGTLVTVSSGGGGSRSELTQDPAVSVALGQTVRITCQGDSLRSYYASWYQQKPGQAPVLVIYGKNNRPSGIPDRFSGSSSGNTASLTITGAQAEDEADYYCNSRDSSGNHVVFGGGTKLTVLAAAHHHHHHGAAEQKLISEEDLNGAA
notes: Made in E. coli HB2151 periplasm; also called 16e2×hUCTH1 scDb; 16E2×hUCTH1 scDb
B3: Clone 44 anti-TRAIL-R2 ScFv isolated with Phage Display (scFv)
scFv: QVHLRESGGGLVQPGRSLRLSCAASGFTFDDYAMHWVRQAPGKGLEWVSGISWNSGSISYADSVKGRFTISRDNAKNSLYLQMSSLRSEDTAVYYCARDPNHGGDRRDDALDMWGQGTMVTVSSGGGGSGGGGSGGGGSSELTQDPAVSVALGQTVRITCQGHSLRSYFASWYQQRPRQAPTLVIYGKNNRPSGIPDRFSGSSSGNTASLTITGAQAEDEADYYCGSRDSSSTHRGVFGGGTKLTVLGAA
notes: as for B1

Assays:
[1] = biological target: T1, naive TRAIL-R2 captured from SU-DHL-4 cell lysate (human, UniProt O14763 56-440, limits assumed); assay: single clone phage ELISA (scFv on phage), TRAIL-R2 captured from SU-DHL-4 lysate
T1 construct: also called naïve TRAIL-R2; natural TRAIL-R2

[2] = biological target: T2, TRAIL-R2 on cells (TRAIL-R2+ human melanoma and other tumor cell lines) (human, UniProt O14763 56-440); assay: soluble scFv on TRAIL-R2+ cells
T2 construct: whole, on cells; Endogenous receptor on cell lines; also called TRAIL-R2+ cells

[3] = biological target: T3, Recombinant human TRAIL-R2 (R&D Systems) (human, UniProt O14763 54-182, limits assumed); assay: SPR (BIAcore), recombinant TRAIL-R2 immobilised on a CM5 chip, 5 scDb concentrations from 400 to 25 nM
T3 construct: Bought recombinant protein, amine-coupled to a CM5 chip; also called TRAIL-R2 recombinant protein; recombinant receptor

Row | Binder | binding result [1] | binding result [2] | Kd [3] [nM]
1 | B1 | binds | binds | 
2 | B2 |  |  | 148
3 | B3 | binds | binds | 
